Consider one substance from publication PMC8978962.

This assay has as its target CitbHLH2-YFPN (citrus).

Regarding CitMYB52-YFPC (natural protein), the CitALMT promoter activity (LUC/REN, dual-luciferase assay in tobacco leaves) with the combination of CitMYB52 and CitbHLH2, against the empty vector SK set as 1 is 9.8 fold.
